Assay: soluble on expression in E. coli; label from the status in PepcDB or PDB records
For “MSLTENKGTPEVGWSFDTRYTDLPSMMFSNVEPEPVEAPKLVILNDSLAQSLGLDPVALQHQNSIAVLAGNEVPKGAAPLAQAYAGHQFGHFTMLGDGRAILLGEQITPNGERFDIQLKGSGRTPYSRQGDGRAALGPMLREYIISEAMHALGIPTTRSLAVVTTGESVFRETVLPGAILTRVAASHIRVGTFQFVANAGSEEELKALADYTLARHFPEVEADRENRYLALLQKVIKRQAELIAKWQLVGFIHGVMNTDNMTISGETIDYGPCAFMDVYDPETVFSSIDTRGRYAYGNQPRIGAWNLARFAEALLPLLADDQDEAIKLAEAEISNYAEQFEHHWLNGMRAKLGLFNEESEDLSLIKDLLEVMHKHKADFTNTFRALTFDEQEETGLHDKLEFTEWHERWQARLGRQEQTKDDSHNLMKMSNPAVIPRNHRVEEALEAAVEQEDYQVMERLLKVLANPFAHSPEQKAYAKLPAPCAIPYRTYCGTEGHHHHHH”, the “soluble on expression in E. coli” value was “not soluble”. With “LALVATGNDTTTKPDLYYLKNSEAINSLALLPPPPAVGSIAFLNDQAMYEQGRLLRNTERGKLAAEDANLSSGGVANAFSGAFGSPITEKDAPALHKLLTNMIEDAGDLATRSAKDHYMRIRPFAFYGVSTCNTTEQDKLSKNGSYPSGHTSIGWATALVLAEINPQRQNEILKRGYELGQSRVICGYHWQSDVDAARVVGSAVVATLHTNPAFQQQLQKAKAEFAQHQKK” the “soluble on expression in E. coli” value was “soluble”. With “MGTNLPTEVGQILSAPTSIDYNYPTTGVWDASYDICLDSTPKTTGVNQQEIMIWFNHQGSIQPVGSPVGNTTIEGKNFVVWDGSNGMNNAMAYVATEPIEVWSFDVMSFVDHTATMEPITDSWYLTSIRAGLEPWSDGVGLGVDSFSAKVN” the “soluble on expression in E. coli” value was “soluble”. For “MSKHVNWSGVFPAVTTQFNADFSVNLEETHTVISNLVRDGVSGLVVCGSVGENTSLTIEEKMAVTEVAKDASGGRVPVICGIAEFTSAGAAKVAKAVERVGVDGIMVMPALVYSSKPHETAEHFRSVASGTDLPVMVYNNPPIYRNDVTPDILVSLADCENIVCFKDSSGDTRRFIDVRNQVGERFILFAGLDDVVLESVAVGAQGWISGMSNVFPKEGETIFRLARAGRFAEAMPIYEWLMPILHLDARPDLVQCIKLCEQLAGRGSALTRPPRLALRGADREHVERIMAKALASRPALPDVGL”, the “soluble on expression in E. coli” value was “not soluble”. With “MLMSLAQCPGFLFAHREECTVEIKKIINPRYTESGAVDCDVFFDDRDQAVPYTATADDVAPTGQQIWQELQSGKWGEIAPFTVTPEMLEAAREARRQEIEAWRTEQEAKPFTFEWNGRTWNADASSVARLSPVVMLAKSVAAQTHMVWSDADNQQVKLSMPELEELAAAMVQAQVDRNDEIYRRQREMKEELSSLDDLASIRAFDVK” the “soluble on expression in E. coli” value was “not soluble”. In the case of “AHHHHHHGSLIVVRPGRKKNELEAFIIENPPEKLSQRRNLKADRVVRLIMRDNRLFKALEGSQYLNPKEVERALRNSRIVLVNANEWEEYFKKRLMNKRVEKADICRLCLLNGKITVLTEGNRIRYRDEYICESCAEEELKRELRFRFNSIGMLEQAKKLLERFRDLDKVISIFDPSFDPTKHPEITKWDELKAKHIRVEKMHIDELNIPEEFKKVLKAEGINELLPVQVLAIKNGLLEGENLLVVSATASGKTLIGELAGIPKALKGKKMLFLVPLVALANQKYEDFKRRYSKLGLKVAIRVGMSRIKTKEEPIVLDTGTDAHIIVGTYEGIDYLLRAGKKIGNVGTVVIDEIHMLDDEERGARLDGLIARLRKLYSNAQFIGLSATVGNPQELARKLGMKLVLYDERPVDLERHLIIARNESEKWRYIAKLCKAEAMRKSEKGFKGQTIVFTFSRRRCHELASFLTGQGLKAKAYHSGLPYVQRKLTEMEFQAQMIDVVVTTAALGAGVDFPASQVIFESLAMGNKWITVREFHQMLGRAGRPQYHEKGKVYIIVEPGKKYSAQMEGTEDEVALKLLTSPIEPVIVEWSDEFEEDNVLAHACVFNRLKVIEEVQSLCLGANQSAKNVLEKLMEKGLVKIYGDKVEATPYGRAVSMSFLLPREAEFIRDNLESTDPIEIAIKLLPFENVYLPGSLQREIESAVRGKISSNIFSSSFASVLEELDKIIPEISPNAAERLFLIYQDFFNCPEQDCTEFAMERIGRKIIDLRREGYEPSKISEHFRKVYALILYPGDVFTWLDGIVRKLEAIERIARVFNKRRVVEDTIRVRREIEEGKILKGERR”, the “soluble on expression in E. coli” value is reported as “not soluble”. With “MSTKEKKTKKPHNVKSSVVPPKKWKTKKKDKKGTGKLRKTASNASLKKHGSTHKIKKPEDITSDGCPLLLTASDTCANIYAEQLSAPNNLSAKTSTPHKSIEAALTPVAFSPPPATQATQAMDAPATTKTAVKPTKWKAEDVAVAYIQKLDPGVIRAEYIEACAATKVNIDKDCQLWKKNLQMNQADNYPILDSTIVKNPAQPDSYVNMSSVIVPHCRYPILMAQMPKRGFEEEFWRAAFNESVVIMYVLMGTEDEKNDFFPTTMGAYVYYGAMFVNIRKVEKMDEERTRYTIEVLPNGFSNSVMMNVYVHTGWEASGVPVRYANTTRSVVDVMNFVKTSSGTEKMLVVSKNGCGRAGFFLSLGAAFCCLNDNSEPRIGEIVKAIRSQRPNAVDSIKQYASIYLCFVYYIKKKITIPEGMQQKFDDLKKGIEAIIREDLSIMY” the “soluble on expression in E. coli” value was “not soluble”. In the case of “SAVAVEGARRKERILCLFDVDGTLTPARQKIDPETIQNHLGEELLQDLINFCLSYMALLRLPKKRGTFIEFRNGMLNVSPIGRSCTLEERIEFSELDKKEKIREKFVEALKTEFAGKGLRFSRGGMISFDVFPEGWDKRYCLDSLDEDSFDIIHFFGNETSPGGNDFEIYADPRTVGHSVVSPQDTVQRCRELFFPETAHEA”, the “soluble on expression in E. coli” value is reported as “soluble”. With “MGSDKIHHHHHHVKDGFDLVDTGDPFDTITPVIPISDRPRSQSVVAGTLNDPYRRQAVADARSLWRKSIPGSRGVVAAYLASQGIQLDEIPANLRFVLDHPYMKKSGGLYHELHRGPCVLGGIFSEAGQLLGVNQIWVDPKPPHGRASIQMDGDHMPAEIVRGSCKGGFLPLVWPEAATALVVARSLEAALRAYASRPSGLEDAAYWAVVDLKVMSGKMQRQKGVRYSGLPDLSDDTSFVAPHWVKRLVFLQEDDRTGTRQKLESGLKRSMHVRPGLRASIVRIGSAAKGGV” the “soluble on expression in E. coli” value was “not soluble”. In the case of “MFGFLRKSQPVPQPQEATSDTIATQHTSAPLSNDMMLLMAEEIPMLDSNSRVRVYEILEQYDGPTICSQEELPREIREMMDL”, the “soluble on expression in E. coli” value is reported as “not soluble”. In the case of “MAHHHHHHMKRTLSLGIEGSANKIGVGVVDQSGTVLSNVRETYITPPGSGFLPRETAIHHSQHVLQVVQRAMHDAAVTPADIDIISYTKGPGMGGPLSVGCTVAKTLSLLWGKPLVGVNHCVGHIEMGRVVTKSENPVVLYVSGGNTQVIAYADHRYRIFGETIDIAVGNCLDRVARLLNISNDPAPGYNIEQKAKKGKCYIRLPYTVKGMDMSFTGILSYIEQLVHHPQFSDSDVREMSKKRHKAAPSLTSMPVPPGETLNTDDICFSLQETIFAMLVEVTERAMSQIKTSDVLIVGGVGCNRRLQEMMQLMAAERGGRCFGMDQRYCIDNGCMIAYAGLLQYLSGSFTTMAEATVTQRFRTDEVYVTWRD”, the “soluble on expression in E. coli” value is reported as “not soluble”. For “MAHHHHHHMRSFMYMCRQVQGARFIQITRSRCGRTIPYKLADIGEGIKEVEVVTLYVKPGDRIGEFEKICEVQSDKATVEITSRYAGVITTVHIEAGEKAHVGEPIVDIEVNDTDETQKPSCGTVDCNVSDQFNNGGVPVAEEGDSCAADCTTEISKDFTKVLATPAVREFARSRGVNITDVKGTGKDGRVLREDVLSYAGKSCYNDDVVVRLDTGLRKAMVSSMTKAGSVPSFTACDEVEVSQLLNFQHILRDALNSSSEGVRDGSKVSLMPLFIKAASQSLLQYPELNAHVSSECDKLFVKKAHHIGFAMDTPKGLVVPVVRDVQQKSVAELVHEVNELVTLGRKSQIPPDRMKDGTFTLSNIGPIGAIYATPMLNPPQVAIGAIGRIQQLPRFDASGNVVRANILAMSWTADHRVIDGATLVRFSNAFKRCLESPGLLIAGEVA”, the “soluble on expression in E. coli” value was “not soluble”. For “MKHLMKMWNPWWIERKVPASKKRISRPETLETILKLLDIREVICITGVRRCGKSTIMYQAIDHLIGKGVEPENILYFNLDEPFEDKSIGLLDRIFGEYIELHVPKGRKYIFLDEIQNVKDWEQWVKKFYDLHGEDIKFVLTGSNSSMLSDQLSILLTGRMITQHVFPLSFKEYLDFESFELKDPDIQRNEILHYFNKYLFKGGFPEVVLENDMDINHLRLTEYFNSILLRDIVVGRNIRESAKLIELANYSLSNVSTLLSYSKISNATGLSVNSLKEYLLFLEQAYLIYQLNFFSYSVKDSISIKMPKKVYCIDNGLRNSAAFTFSADEGRLAENLAFVELKRRKVEFFYWKEKREVDFVIKGIDGALTGINCTCTDHIRQGEINALLELKEQFGEKVSRLILLTKNLEKKENDISYIPLWKWVLGTRLSK”, the “soluble on expression in E. coli” value was “not soluble”. With “MGHHHHHHSHMEAPGPAQAAAAESNSREVTEDAADWAPALCPSPEARSPEAPAYRLQDCDALVTMGTGTFGRVHLVKEKTAKHFFALKVMSIPDVIRRKQEQHVHNEKSVLKEVSHPFLIRLFWTWHEERFLYMLMEYVPGGELFSYLRNRGHFSSTTGLFYSAEIICAIEYLHSKEIVYRDLKPENILLDRDGHIKLTDFGFAKKLVDRTWTLCGTPEYLAPEVIQSKGHGRAVDWWALGILIFEMLSGFPPFFDDNPFGIYQKILAGKLYFPRHLDFHVKTGRMM” the “soluble on expression in E. coli” value was “not soluble”. In the case of “TDPDADRLGVEIRQPDGSYLNLSGNQIGAIIAKYILEAHKTAGTLPANAALCKSIVSTELVTKIAESYGATMFNVLTGFKFIGEKIHEFETQHNYTYMFGFEESFGYLIKPFVRDKDAIQAVLIVAEIAAYYRSRGMTLADGIEEIYKQYGYFSE”, the “soluble on expression in E. coli” value is reported as “not soluble”. For “MDFPTISRSPSGPPAMDLEGPRDILVPSEDLTPDSQWDPMPGGPGSLSRMELDESSLQELVQQFEALPGDLVGPSPGGAPCPLHIATGHGLASQEIADAHGLLSAEAGRDDLLGLLHCEECPPSQTGPEEPLEPAPRLLQPPEDPDEDSDSPEWVEGASAEQEGSRSSSSSPEPWLETVPLVTPEEPPAGAQSPETLASYPAPQEVPGPCDHEDLLDGVIFGARYLGSTQLVSERNPPTSTRMAQAREAMDRVKAPDGETQPMTEVDLFVSTKRIKVLTADSQEAMMDHALHTISYTADIGCVLVLMARRRLARRPAPQDHGRRLYKMLCHVFYAEDAQLIAQAIGQAFAAAYSQFLRESGIDPSQVGVHPSPGACHLHNGDLDHFSNSDNCREVHLEKRRGEGLGVALVESGWGSLLPTAVIANLLHGGPAERSGALSIGDRLTAINGTSLVGLPLAACQAAVRETKSQTSVTLSIVHCPPVTTAIIHRPHAREQLGFCVEDGIICSLLRGGIAERGGIRVGHRIIEINGQSVVATPHARIIELLTEAYGEVHIKTMPAATYRLLTGQEQPVYL”, the “soluble on expression in E. coli” value was “soluble”. In the case of “MGSDKIHHHHHHMKKSCKVSVHQLQIGNFVRLPVAWKDHPFLFSSFHIKQAAQIELIKNLGIAHVIVDLERSDVEPLSIDAVNPIKLPPAPEIHDLKNDMELYKAEQIEVQKKLRRDIHKTEQNFTRSVAMMRSMISKLRNRPLNAVDDAKDLVHSIVEQLLTSDNLVLHLMSDAKQDESIYYHSLNVAILSMLIAKEMEWSRSEIEAIGLSALFHDVGKLKIPPQILKKSTPWSAPELNFIKQHPLLGVELLKLAENFPPSALPAITNHHEFLDGTGYPKGLKEADLDQMSQLLAVVNEYDSLCYPNPQDKPMMPYAALGHLYKQYKTKLNQEYIGKIIKMLGIYPPGSVVELSSGQYAMVMSVNLQKLLCPKILVYDAQVPKDQAPIVDLELEGISIVRCLPPAALPEKVHEYLNPRERVSYYFGGDSRK”, the “soluble on expression in E. coli” value is reported as “not soluble”. With “MSEKRLPLKPVLRIDFPPGERLGHGKVELMQLIAETGSISAAGRAMDMSYRRAWLLVDALNHMFRQPVICSQRGGKQGGGAALTVFGAELLERYRGMEERMNEALREDIDWLEANRNPQDALNRDREPPTL” the “soluble on expression in E. coli” value was “soluble”.
